Measurements published in patent US20050282743A1, “Molecular interactions in cells” (Arbor Vita Corporation, priority 2001, published 2005).
Ends that are not written are not given here. * marks the point of attachment. Biotin = O=C1N[C@H]2[C@H](CS[C@H]2CCCCC(=O)*)N1

Legend:
Assay in all cases: G' assay (10 uM PL peptide), results of TABLE 7 and TABLE 12
Assay type in all cases: binding
[1] = biological target: T1, PDZ protein (GST-PDZ fusion) (Homo sapiens, UniProt Q14168); conditions: PDZ MPP2, PDZ Domain 1
T1 construct: made in house; host or cells: E. coli (DH5alpha, BL21 or JM109)
T1 sequence (Q14168 1-576): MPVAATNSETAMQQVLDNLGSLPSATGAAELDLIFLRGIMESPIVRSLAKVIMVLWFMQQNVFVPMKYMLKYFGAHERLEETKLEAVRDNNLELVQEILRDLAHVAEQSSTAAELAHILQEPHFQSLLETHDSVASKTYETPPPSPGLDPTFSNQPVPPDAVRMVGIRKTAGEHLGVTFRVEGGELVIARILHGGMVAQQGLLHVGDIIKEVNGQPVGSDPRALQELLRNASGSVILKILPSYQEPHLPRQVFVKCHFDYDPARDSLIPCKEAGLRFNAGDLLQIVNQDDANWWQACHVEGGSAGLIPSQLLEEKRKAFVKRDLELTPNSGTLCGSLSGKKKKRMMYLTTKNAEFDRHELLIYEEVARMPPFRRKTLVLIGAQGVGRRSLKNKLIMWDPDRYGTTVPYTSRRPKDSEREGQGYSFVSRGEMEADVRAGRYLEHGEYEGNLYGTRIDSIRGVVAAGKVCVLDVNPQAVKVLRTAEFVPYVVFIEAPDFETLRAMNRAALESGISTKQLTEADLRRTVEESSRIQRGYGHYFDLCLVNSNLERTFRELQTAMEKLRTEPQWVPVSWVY
How it was run: (§1)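 Biotinylated PL peptides at 10 uM (vs 20 uM in G^0 assay) bound to GST-PDZ fusions; PDZ protein at 5 ug/ml unless another concentration listed. Bound peptide read as A450 nm, classified 0–5 (0 = A450 0; 5 = A450 >4 repeated).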

[2] = biological target: T2, PDZ protein (GST-PDZ fusion) (Homo sapiens, UniProt Q9BXL6); conditions: PDZ CARD14, PDZ Domain 1
T2 construct: made in house; host or cells: E. coli (DH5alpha, BL21 or JM109)
T2 sequence (Q9BXL6 1-1004): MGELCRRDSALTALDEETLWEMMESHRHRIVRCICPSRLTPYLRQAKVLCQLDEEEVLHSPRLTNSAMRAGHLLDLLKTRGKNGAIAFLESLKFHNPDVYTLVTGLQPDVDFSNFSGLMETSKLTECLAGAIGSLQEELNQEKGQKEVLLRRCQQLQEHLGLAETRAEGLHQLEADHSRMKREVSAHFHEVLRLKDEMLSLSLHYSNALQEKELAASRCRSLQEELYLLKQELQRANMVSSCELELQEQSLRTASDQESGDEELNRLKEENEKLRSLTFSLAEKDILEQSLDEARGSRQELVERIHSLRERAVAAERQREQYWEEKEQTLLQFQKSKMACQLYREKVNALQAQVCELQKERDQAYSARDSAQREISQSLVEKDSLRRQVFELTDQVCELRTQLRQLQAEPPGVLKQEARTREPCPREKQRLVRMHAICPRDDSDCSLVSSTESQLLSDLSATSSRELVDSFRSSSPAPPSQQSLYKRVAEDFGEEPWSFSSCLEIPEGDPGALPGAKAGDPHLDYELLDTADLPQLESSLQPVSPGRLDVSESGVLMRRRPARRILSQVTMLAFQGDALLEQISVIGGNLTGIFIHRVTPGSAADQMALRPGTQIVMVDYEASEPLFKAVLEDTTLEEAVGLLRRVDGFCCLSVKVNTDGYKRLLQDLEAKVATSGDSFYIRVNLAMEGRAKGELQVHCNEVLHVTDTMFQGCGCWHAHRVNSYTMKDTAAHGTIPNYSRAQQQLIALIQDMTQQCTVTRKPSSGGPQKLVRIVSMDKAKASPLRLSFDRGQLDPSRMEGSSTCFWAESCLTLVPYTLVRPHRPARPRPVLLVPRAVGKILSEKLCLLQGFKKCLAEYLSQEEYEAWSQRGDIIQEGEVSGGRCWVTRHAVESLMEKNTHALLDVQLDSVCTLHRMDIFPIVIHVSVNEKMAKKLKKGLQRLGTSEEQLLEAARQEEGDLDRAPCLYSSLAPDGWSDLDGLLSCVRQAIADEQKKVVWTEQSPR
How it was run: as §1

[3] = tested on: PDZ protein (GST-PDZ fusion); conditions: PDZ HEMBA 1003117, PDZ Domain 1
How it was run: as §1

Measured: Classification

5-HT 3A (serotonin receptor 3A) (Biotin-LAVLAYSITLVMLWSIWQYA)
2 (A450 nm 1-2): all assays above
